Values quoted from earlier work, collected in paper PMC3962485.

Target: Hsc70 (UniProt P11142)
UniProt P11142, sequence (P11142 2-646): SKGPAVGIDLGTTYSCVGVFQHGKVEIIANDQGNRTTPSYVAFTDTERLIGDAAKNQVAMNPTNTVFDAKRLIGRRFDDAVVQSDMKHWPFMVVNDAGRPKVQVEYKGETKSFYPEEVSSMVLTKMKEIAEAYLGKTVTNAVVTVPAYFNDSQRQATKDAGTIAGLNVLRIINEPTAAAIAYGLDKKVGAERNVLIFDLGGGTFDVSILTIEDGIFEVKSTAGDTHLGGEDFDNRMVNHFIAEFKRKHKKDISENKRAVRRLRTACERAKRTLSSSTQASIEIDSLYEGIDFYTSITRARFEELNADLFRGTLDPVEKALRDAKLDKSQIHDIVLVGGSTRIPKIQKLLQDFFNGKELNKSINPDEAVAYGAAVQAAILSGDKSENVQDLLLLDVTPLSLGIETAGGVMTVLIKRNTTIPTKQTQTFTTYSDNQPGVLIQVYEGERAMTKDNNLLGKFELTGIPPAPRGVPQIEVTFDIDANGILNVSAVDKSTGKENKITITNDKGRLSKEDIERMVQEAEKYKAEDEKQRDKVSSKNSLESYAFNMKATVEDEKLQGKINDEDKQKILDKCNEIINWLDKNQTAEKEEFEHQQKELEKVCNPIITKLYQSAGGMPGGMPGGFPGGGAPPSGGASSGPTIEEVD

- Kd: 5 µM
Substance: Snl1-M (from UniProt P40548)
